Where two headings read alike, the source gives them in different places.
What was measured:
Assay in all cases: SPR
Human a7b1 Ecto (X2B) [1] = target: T1, Human a7b1 Ecto (X2B) (human, UniProt P05556 21-728)
T1 construct: extracellular domain

Human a7 Genu Calf 1-2 [2] = target: T2, Human a7 Genu Calf 1-2 (human, UniProt Q13683 679-1078, limits assumed)
T2 construct: domain: Genu Calf 1-2
T2 sequence (looked up): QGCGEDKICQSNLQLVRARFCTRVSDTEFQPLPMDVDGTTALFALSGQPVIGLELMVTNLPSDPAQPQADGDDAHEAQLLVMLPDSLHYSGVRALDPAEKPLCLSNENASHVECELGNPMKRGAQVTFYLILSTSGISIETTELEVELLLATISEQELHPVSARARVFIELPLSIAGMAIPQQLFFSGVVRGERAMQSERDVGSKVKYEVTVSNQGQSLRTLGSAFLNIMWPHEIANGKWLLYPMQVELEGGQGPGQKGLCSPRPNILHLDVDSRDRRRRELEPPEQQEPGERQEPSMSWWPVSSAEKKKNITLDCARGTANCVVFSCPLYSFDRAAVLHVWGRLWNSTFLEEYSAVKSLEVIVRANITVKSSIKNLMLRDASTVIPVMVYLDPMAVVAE

Human a7b1 Ecto (X2B) [3] = target: T1, Human a7b1 Ecto (X2B); remark: listed apart in the source
Target sequence in this assay (P05556 21-728): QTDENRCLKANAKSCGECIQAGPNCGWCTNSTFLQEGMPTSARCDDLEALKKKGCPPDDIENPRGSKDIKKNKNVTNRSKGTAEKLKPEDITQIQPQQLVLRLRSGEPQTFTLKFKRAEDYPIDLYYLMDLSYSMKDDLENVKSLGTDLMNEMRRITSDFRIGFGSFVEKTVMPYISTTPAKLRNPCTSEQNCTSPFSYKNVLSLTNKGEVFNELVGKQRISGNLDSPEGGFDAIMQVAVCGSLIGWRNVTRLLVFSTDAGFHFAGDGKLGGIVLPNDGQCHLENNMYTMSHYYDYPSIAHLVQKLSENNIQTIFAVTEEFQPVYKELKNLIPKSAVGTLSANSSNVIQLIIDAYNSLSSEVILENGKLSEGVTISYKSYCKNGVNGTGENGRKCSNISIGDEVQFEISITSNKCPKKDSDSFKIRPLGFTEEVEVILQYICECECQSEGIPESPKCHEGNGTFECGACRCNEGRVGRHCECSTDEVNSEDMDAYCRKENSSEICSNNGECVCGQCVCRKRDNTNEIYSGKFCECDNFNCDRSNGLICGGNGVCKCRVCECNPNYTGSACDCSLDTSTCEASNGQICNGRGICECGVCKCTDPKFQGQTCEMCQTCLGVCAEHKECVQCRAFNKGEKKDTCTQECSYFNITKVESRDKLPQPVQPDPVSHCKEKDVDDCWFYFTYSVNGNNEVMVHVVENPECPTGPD

Human a7 Genu Calf 1-2 [4] = target: T2, Human a7 Genu Calf 1-2; remark: listed apart in the source

B1: Ab25 (antibody, human IgG1, kappa, L234A L235A)
heavy: EVQLVQSGAEVKKPGSSVKVSCKASGYSFTRYWMHWVRQAPGQGLEWIGKIDPSDSETRLNQEFRDRATLTVDKSTSTAYMELSSLRSEDTAVYYCARGGYFGREWYYDVWGQGTLVTVSSASTKGPSVFPLAPSSKSTSGGTAALGCLVKDYFPEPVTVSWNSGALTSGVHTFPAVLQSSGLYSLSSVVTVPSSSLGTQTYICNVNHKPSNTKVDKKVEPKSCDKTHTCPPCPAPEAAGGPSVFLFPPKPKDTLYITREPEVTCVVVDVSHEDPEVKFNWYVDGVEVHNAKTKPREEQYNSTYRVVSVLTVLHQDWLNGKEYKCKVSNKALAAPIEKTISKAKGQPREPQVYTLPPSRDELTKNQVSLTCLVKGFYPSDIAVEWESNGQPENNYKTTPPVLDSDGSFFLYSKLTVDKSRWQQGNVFSCSVMHEALHNHYTQKSLSLSPG
light: DIVMTQSPLSLPVTPGEPASISCRSSQSLVHRNGNTYLHWYLQKPGQSPQLLIYEVSNRAAGVPDRFSGSGSGTDFTLKISRVEAEDVGVYFCSQSTHVPWTFGGGTKLEIKRTVAAPSVFIFPPSDEQLKSGTASVVCLLNNFYPREAKVQWKVDNALQSGNSQESVTEQDSKDSTYSLSSTLTLSKADYEKHKVYACEVTHQGLSSPVTKSFNRGEC
notes: same variable domains as Ab24
Kd (Human a7b1 Ecto (X2B) [1]): 3.4 nM
Kd (Human a7 Genu Calf 1-2 [2]): 0.3 nM

B2: Ab26 (antibody, human IgG1, kappa, L234A L235A, V domains shown)
VH: EVQLVQSGAEVKKPGSSVKVSCKASGYSFTRYWMHWVRQAPGQGLEWIGKIDPSDSETRLNQEFRDRATLTVDKSTSTAYMELSSLRSEDTAVYYCARGGYFGEEWYHDVWGQGTLVTVSS
VL: DIVMTQSPLSLPVTPGEPASISCRSSQSLVHRNGNTYLHWYLQKPGQSPQLLIYEVSNRFTGVPDRFSGSGSGTDFTLKISRVEAEDVGVYFCAQSTQLPYTFGGGTKLEIKR
Kd (Human a7b1 Ecto (X2B) [1]): 2.2 nM
Kd (Human a7 Genu Calf 1-2 [2]): 0.3 nM

B3: Ab41 (antibody, human IgG1, V domains shown)
VH: EVQLVQSGAEVKKPGSSVKVSCKASGYSFTRYWMHWVRQAPGQGLEWIGKIDPSDSETRLNQEFRDRATLTVDKSTSTAYMELSSLRSEDTAVYYCARGGYFGEQWYHDVWGQGTLVTVSS
VL: DIVMTQSPLSLPVTPGEPASISCRSSQSLVHRNGNTYLHWYLQKPGQSPQLLIYEVSKRFSGVPDRFSGSGSGTDFTLKISRVEAEDVGVYFCAQSIQVPWTFGGGTKLEIK
Kd (Human a7b1 Ecto (X2B) [1]): 3.88 nM
Kd (Human a7 Genu Calf 1-2 [2]): 0.71 nM

B4: Ab28 (antibody, human IgG1, lambda, L234A L235A)
heavy: EVQLVESGGGLVKPGGSLRLSCAASGFTFSSYTMNWVRQAPGKGLEWVSSISIVGNYIYYADSLKGRFTISRDNAKNSLYLQMNSLRAEDTAVYYCARRKWEHDAFDIWGQGTMVTVSSASTKGPSVFPLAPSSKSTSGGTAALGCLVKDYFPEPVTVSWNSGALTSGVHTFPAVLQSSGLYSLSSVVTVPSSSLGTQTYICNVNHKPSNTKVDKKVEPKSCDKTHTCPPCPAPEAAGGPSVFLFPPKPKDTLMISRTPEVTCVVVDVSHEDPEVKFNWYVDGVEVHNAKTKPREEQYNSTYRVVSVLTVLHQDWLNGKEYKCKVSNKALAAPIEKTISKAKGQPREPQVYTLPPSRDELTKNQVSLTCLVKGFYPSDIAVEWESNGQPENNYKTTPPVLDSDGSFFLYSKLTVDKSRWQQGNVFSCSVLHEALHSHYTQKSLSLSPG
light: SSELTQDPAVSVALGQTVRITCQGDSLRSYYASWYQQKPGQAPVLVIYGKNNRPSGIPDRFSGSSSGNTASLTITGAQAEDEADFYCTSRDNSGNHVVFGGGTKLTVLGQPKAAPSVTLFPPSSEELQANKATLVCLISDFYPGAVTVAWKADSSPVKAGVETTTPSKQSNNKYAASSYLSLTPEQWKSHKSYSCQVTHEGSTVEKTVAPTECS
Kd (Human a7b1 Ecto (X2B) [3]): 7.3 nM
Kd (Human a7 Genu Calf 1-2 [4]): 1.3 nM

Reference: US20250289894A1 (MORPHIC THERAPEUTIC, published 2025)
